According to patent publication US9580508B2, “Bispecific EGFR/c-Met antibodies” (Janssen Biotech, Inc., priority 2012, dated 2017):
“Also recorded” adds a separate entry of the source. Where two headings read alike, the source gives them in different places.

Assays:
[1] = system: H1975 cells expressing human HGF; assay: H1975-HGF xenograft tumor efficacy; format: in vivo, nude mice; details: H1975-HGF NSCLC, day 16; mAbs 10 mg/kg BIWx3wk, erlotinib 50, afatinib 15 mg/kg QDx21d
H1975 cells = assay: H1975 xenograft tumor efficacy; format: in vivo, nude mice; details: H1975 NSCLC, day 18, mAbs 10 mg/kg BIWx3wk, erlotinib 50, afatinib 15 mg/kg QDx21d
[2] = system: H292-HGF human lung cancer xenograft
Protocol: (§1) The H292-HGF cells were maintained in vitro in RPMI1640 medium supplemented with fetal bovine serum (10% v/v), and L-glutamine (2 mM) at 37° C. in an atmosphere of 5% CO2 in air. The cells were routinely subcultured twice weekly by trypsin-EDTA treatment. The cells growing in an exponential growth phase were harvested and counted for tumor inoculation.
(§2) Each mouse was inoculated subcutaneously at the right flank region with H292-HGF tumor cells (2×10^6) in 0.1 ml of PBS with Cultrex (1:1) for tumor development. The treatments were started when the mean tumor size reached 139 mm^3. […] The date of tumor cell inoculation was denoted as day 0.
(§3) Before commencement of treatment, all animals were weighed and the tumor volumes were measured. Since the tumor volume can affect the effectiveness of any given treatment, mice were assigned into groups using randomized block design based upon their tumor volumes. […] The randomized block design was used to assign experimental animals to groups. First, the experimental animals were divided into homogeneous blocks according to their initial tumor volume. Secondly, within each block, randomization of experimental animals to treatments was conducted.
(§4) At the time of routine monitoring, the animals were checked for any effects of tumor growth and treatments on normal behavior, such as mobility, visual estimation of food and water consumption, body weight gain/loss (body weights were measured twice weekly), eye/hair matting and any other abnormal effect.
(§5) The endpoint was whether tumor growth can be delayed or tumor bearing mice can be cured. Tumor size was measured twice weekly in two dimensions using a caliper, and the volume was expressed in mm^3 using the formula: V=0.5 a×b^2 where a and b are the long and short diameters of the tumor, respectively. The tumor size was then used for calculations of both T-C and T/C values. T-C was calculated with T as the time (in days) required for the mean tumor size of the treatment group to reach 1000 mm^3, and C was the time (in days) for the mean tumor size of the control group to reach the same size. The T/C value (in percent) was an indication of antitumor efficacy; T and C were the mean tumor volume of the treated and control groups, respectively, on a given day. Complete tumor regression (CR) is defined as tumors that are reduced to below the limit of palpation (62.5 mm^3) Partial tumor regression (PR) is defined as tumors that are reduced from initial tumor volume. A minimum duration of CR or PR in 3 or more successive tumor measurements is required for a CP or PR to be considered durable.
(§6) Animals for which the body weight loss exceeded 20%, or for which the mean tumor size of the group exceeds 2000 mm^3 were euthanized. The study was terminated after two weeks of observation after the final dose.
(§7) Statistical analyses of difference in tumor volume among the groups were evaluated using a one-way ANOVA followed by individual comparisons using Games-Howell (equal variance not assumed). All data were analyzed using SPSS 18.0. p<0.05 was considered to be statistically significant.

[3] = system: H292-HGF human lung cancer xenograft; assay: H292-HGF human lung cancer xenograft: bispecific molecule versus other EGFR and c-Met inhibitors; details: mouse, in vivo
Protocol: as §1, §2, §3, §4, §5, §6, §7

NCI-H3255 cells = assay: cells; details: Homo sapiens, […] HGF
Protocol: NCI-H3255 and HCC-827 cells were plated as described above in “Inhibition of Human Tumor Cell Growth or Viability by Antibodies”. […] Some wells were left untreated with either HGF or antibodies as controls. Cells were incubated at 37° C., 5% CO2 for 72 hours, then viable cells were detected using CellTiter-Glo® reagent (Promega), and data were analyzed as described above in “Inhibition of Human Tumor Cell Growth (NCI-H292 growth and NCI-H322 growth assay)”.

[4] = mouse, in vivo, ip
Protocol: SCID Beige mice were subcutaneously inoculated with NCI-H292 cells expressing human HGF (2.0×10^6 cells in Cultrex (Trevigen) in a volume of 200 μL) on the dorsal flank of each animal. Tumor measurements were taken twice weekly until tumor volumes ranged between 150-250 mm^3. Mice were then given a single i.p. dose of bispecific EGFR/c-Met molecules (linked to an albumin binding domain to increase half-life) or PBS vehicle. At 6 h or 72 h after dosing, tumors were extracted and immediately frozen in liquid nitrogen. […] Tumors were weighed, cut into small pieces, and lysed in Lysing Matrix A tubes (LMA) containing RIPA buffer with HALT protease/phosphatase inhibitors (Pierce), 50 mM sodium fluoride (Sigma), 2 mM activated sodium orthovanadate (Sigma), and 1 mM PMSF (MesoScale Discovery). Lysates were removed from LMA matrix and centrifuged to remove insoluble protein. The soluble tumor protein was quantified with a BCA protein assay and diluted to equivalent protein levels in tumor lysis buffer. Phosphorylated c-Met, EGFR and ERK were measured using assay plates from MesoScale Discovery (according to Manufacturer's protocol and as described above).

[5] = system: NCI-H292 cells expressing human HGF; assay: H292-HGF xenograft tumor efficacy with four bispecific FN3 molecules; format: in vivo, SCID Beige mice; details: 25 mg/kg three times per week
Protocol: One week after implantation, mice were stratified into groups with equivalent tumor volumes (mean tumor volume=77.9+/−1.7 mm^3) Mice were dosed three times per week with the bispecific molecules and tumor volumes were recorded twice weekly.

NCI-H292 cells = assay: HGF-induced NCI-H292 cell proliferation; format: cell-based, human; details: read-out: H292-HGF Proliferation inhibition in HGF-induced H292 cells (IC50)
Excerpt: The proliferation assay was completed using different combinations EGFR and c-Met binding FN3 domains either as a mixture or linked in a bispecific format. […] This confirmed that the avidity effect observed at the level of the receptors (FIG. 4 and FIG. 5) translates into an improvement in inhibiting cell signaling (Table 12) and cell proliferation (Table 13).
Select bispecific EGFR/c-Met molecules were characterized for their affinity to both EGFR and c-Met, their ability to inhibit EGFR and c-Met autophosphorylation, and their effect on proliferation of HGF cells. Binding affinity of the bispecific EGFR/c-Met molecules to recombinant EGFR and/or c-Met extracellular domain was further evaluated by surface Plasmon resonance methods using a Proteon Instrument (BioRad) according to protocol described in Example 3.

EGFR = molecular target: T1, EGFR (Homo sapiens, UniProt P00533); assay: Inhibition of EGFR phosphorylation in NCI-H441 cells; format: cell-based
T1 construct: endogenous in cells; host or cells: NCI-H441
Protocol: NCI-H292, NCI-H441, or NCI-H596 cells were plated in 96 well plates in RPMI medium containing 10% FBS. 24 hours later, medium was replaced with serum free RPMI. […] Cells were treated for 1 h with the monospecific or bispecific molecules and then stimulated with EGF, HGF, or a combination of EGF and HGF for 15 minutes at 37° C., 5% CO2. Cells were lysed with MSD Lysis Buffer and cell signaling was assessed using appropriate MSD Assay plates, according to manufacturer's instructions, as described above.

CN(C)C/C=C/C(=O)Nc1cc2c(Nc3ccc(F)c(Cl)c3)ncnc2cc1O[C@H]1CCOC1 [afatinib]
% TGI (day of study); compared to PBS vehicle [1]: 29 (16) % | % TGI (day of study); compared to PBS vehicle (H1975 cells): 57 (18) % | % TGI (day of study); compared to PBS vehicle (H1975 cells; listed as Afatinib): 57%

C[C@@H](Oc1cc(-c2cnn(C3CCNCC3)c2)cnc1N)c1c(Cl)ccc(F)c1Cl [crizotinib, reference compound]
Tumor volume (mm^3) ([2]; day 7 (start of treatment)): 140 ± 9 mm^3 | Antitumor activity / response ([2]; mouse, in vivo): no antitumor activity | T − C (days) at 1000 mm^3 ([2]; tumor growth delay vs vehicle): -1 days | Tolerability / body weight loss [3]: More severe body weight loss

C#Cc1cccc(Nc2ncnc3cc(OCCOC)c(OCCOC)cc23)c1 [erlotinib]
IC50 (NCI-H3255 cells; NCI-H3255, NCI-H3255, low attachment culture): 0.0471 µM | IC50 (NCI-H3255 cells; NCI-H3255, NCI-H3255, standard 2D culture): 0.122 µM | Tolerability / body weight loss [3]: More severe body weight loss | % TGI (day of study); compared to PBS vehicle [1]: 20 (16) % | % TGI (day of study); compared to PBS vehicle (H1975 cells): 9 (18) %

B1: ECB39: bispecific FN3 with albumin binding domain: P53A1R5-17v2/P114AR7P94-A3, SEQ ID NO: 121 (protein)
chain: MLPAPKNLVVSEVTEDSARLSWADPHGFYDSFLIQYQESEKVGEAIVLTVPGSERSYDLTGLKPGTEYTVSIYGVHNVYKDTNMRGLPLSAIFTTAPAPAPAPAPLPAPKNLVVSRVTEDSARLSWTAPDAAFDSFWIRYFEFLGSGEAIVLTVPGSERSYDLTGLKPGTEYVVNIMGVKGGKISPPLSAIFTTAPAPAPAPAPLAEAKVLANRELDKYGVSDYYKNLINNAKTVEGVKALLDEILAALP
modifications: Bispecific EGFR/c-Met binding molecule
Tumor accumulation [4]: significantly more tumor accumulation at 6 hours relative to the other molecules | Tumor growth inhibition [5]: showed the most efficacy

B2: ECB38: bispecific FN3 with albumin binding domain: P54AR4-83v2/P114AR7P94-A3, SEQ ID NO: 120 (protein)
chain: MLPAPKNLVVSEVTEDSARLSWDDPWAFYESFLIQYQESEKVGEAIVLTVPGSERSYDLTGLKPGTEYTVSIYGVHNVYKDTNMRGLPLSAIFTTAPAPAPAPAPLPAPKNLVVSRVTEDSARLSWTAPDAAFDSFWIRYFEFLGSGEAIVLTVPGSERSYDLTGLKPGTEYVVNIMGVKGGKISPPLSAIFTTAPAPAPAPAPLAEAKVLANRELDKYGVSDYYKNLINNAKTVEGVKALLDEILAALP
modifications: Bispecific EGFR/c-Met binding molecule
Mice in which the treatment was tolerated ([2]; 25 mg/kg, 3 times/week×3 weeks): 7 out of 10 | Tumor volume (mm^3) ([2]; day 7 (start of treatment)): 137 ± 7 mm^3 | Tumor volume (mm^3) ([2]; day 9): 142 ± 7 mm^3 | Tumor volume (mm^3) ([2]; day 13): 83 ± 6 mm^3 | Tumor volume (mm^3) ([2]; day 16): 44 ± 7 mm^3 | Tumor volume (mm^3) ([2]; day 20): 30 ± 6 mm^3 | Tumor volume (mm^3) ([2]; day 27): 21 ± 5 mm^3 | Tumor volume (mm^3) ([2]; day 30): 23 ± 6 mm^3 | Tolerability / body weight loss ([2]; mouse, in vivo): Slight toxicity | Antitumor activity / response ([2]; mouse, in vivo, listed as bispecific EGFR/c-Met molecule): complete tumor regression (CR) in all mice; also recorded: complete response | Tumor growth inhibition [5]: showed the most efficacy

B3: ECB106: bispecific FN3: P54AR4-83v23-(AP)5-P114AR7P94-A3v22, SEQ ID NO: 65 (protein)
chain: MLPAPKNLVVSEVTEDSARLSWDDPHAFYESFLIQYQESEKVGEAIVLTVPGSERSYDLTGLKPGTEYTVSIYGVHNVYKDTNIRGLPLSAIFTTAPAPAPAPAPLPAPKNLVVSRVTEDSARLSWTAPDAAFDSFWIRYFEFLGSGEAIVLTVPGSERSYDLTGLKPGTEYVVNILGVKGGKISPPLSAIFTT
modifications: bispecific EGFR/cMet binding molecule
IC50 (NCI-H292 cells): 0.484 µM

B4: ECB107: bispecific FN3: P54AR4-83v23-(AP)5-P114AR9P121-A6v2, SEQ ID NO: 66 (protein)
chain: MLPAPKNLVVSEVTEDSARLSWDDPHAFYESFLIQYQESEKVGEAIVLTVPGSERSYDLTGLKPGTEYTVSIYGVHNVYKDTNIRGLPLSAIFTTAPAPAPAPAPLPAPKNLVVSRVTEDSARLSWTAPDAAFDSFWIRYFEFVGSGEAIVLTVPGSERSYDLTGLKPGTEYVVNILGVKGGSISPPLSAIFTT
modifications: bispecific EGFR/cMet binding molecule
IC50 (NCI-H292 cells): 2.64 µM

B5: ECB109: bispecific FN3: P54AR4-83v23-(AP)5-P114AR7P95-C5v2, SEQ ID NO: 68 (protein)
chain: MLPAPKNLVVSEVTEDSARLSWDDPHAFYESFLIQYQESEKVGEAIVLTVPGSERSYDLTGLKPGTEYTVSIYGVHNVYKDTNIRGLPLSAIFTTAPAPAPAPAPLPAPKNLVVSRVTEDSARLSWTAPDAAFDSFWIRYFEFLGSGEAIVLTVPGSERSYDLTGLKPGTEYVVNILSVKGGSISPPLSAIFTT
modifications: bispecific EGFR/cMet binding molecule
IC50 (NCI-H292 cells): 0.574 µM

B6: ECB15: bispecific FN3: P54AR4-83v2-(AP)5-P114AR7P94-A3, SEQ ID NO: 57 (protein)
chain: MLPAPKNLVVSEVTEDSARLSWDDPWAFYESFLIQYQESEKVGEAIVLTVPGSERSYDLTGLKPGTEYTVSIYGVHNVYKDTNMRGLPLSAIFTTAPAPAPAPAPLPAPKNLVVSRVTEDSARLSWTAPDAAFDSFWIRYFEFLGSGEAIVLTVPGSERSYDLTGLKPGTEYVVNIMGVKGGKISPPLSAIFTT
modifications: bispecific EGFR/cMet binding molecule
IC50 (NCI-H292 cells): 0.023 µM

B7: ECB108: bispecific FN3: P54AR4-83v23-(AP)5-P114AR9P122-A7v2, SEQ ID NO: 67 (protein)
chain: MLPAPKNLVVSEVTEDSARLSWDDPHAFYESFLIQYQESEKVGEAIVLTVPGSERSYDLTGLKPGTEYTVSIYGVHNVYKDTNIRGLPLSAIFTTAPAPAPAPAPLPAPKNLVVSRVTEDSARLSWTAPDAAFDSFWIRYFEFVSKGDAIVLTVPGSERSYDLTGLKPGTEYVVNILGVKGGSISPPLSAIFTT
modifications: bispecific EGFR/cMet binding molecule
IC50 (NCI-H292 cells): 11.4 µM

B8: ECB5: bispecific FN3: P53A1R5-17v2-(GGGGS)4-P114AR7P94-A3, SEQ ID NO: 54 (protein)
chain: MLPAPKNLVVSEVTEDSARLSWADPHGFYDSFLIQYQESEKVGEAIVLTVPGSERSYDLTGLKPGTEYTVSIYGVHNVYKDTNMRGLPLSAIFTTGGGGSGGGGSGGGGSGGGGSMLPAPKNLVVSRVTEDSARLSWTAPDAAFDSFWIRYFEFLGSGEAIVLTVPGSERSYDLTGLKPGTEYVVNIMGVKGGKISPPLSAIFTT
modifications: bispecific EGFR/cMet binding molecule
Fold decrease of IC50 for inhibition of EGFR phosphorylation, bispecific vs monospecific EGFR-binding FN3 domain (EGFR): 30 fold
